Measured values published in patent US20210070840A1 (Bristol-Myers Squibb, published 2021).

T1: human IL-23 (human, UniProt P29460 23-328; Q9NPF7 20-189)
T1 construct: Secreted from Sf9 cells for the crystal structure; One molecule is used for all three; also called Interleukin-23
T1 sequence (looked up) 1: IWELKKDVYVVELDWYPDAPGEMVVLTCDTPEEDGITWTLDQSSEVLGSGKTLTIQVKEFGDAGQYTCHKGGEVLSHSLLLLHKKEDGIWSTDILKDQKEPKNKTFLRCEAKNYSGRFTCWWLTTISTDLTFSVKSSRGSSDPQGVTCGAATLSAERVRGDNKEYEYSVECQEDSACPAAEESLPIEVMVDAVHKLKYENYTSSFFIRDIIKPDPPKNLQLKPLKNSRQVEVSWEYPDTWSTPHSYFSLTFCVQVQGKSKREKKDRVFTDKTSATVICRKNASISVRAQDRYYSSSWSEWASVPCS
T1 sequence (looked up) 2: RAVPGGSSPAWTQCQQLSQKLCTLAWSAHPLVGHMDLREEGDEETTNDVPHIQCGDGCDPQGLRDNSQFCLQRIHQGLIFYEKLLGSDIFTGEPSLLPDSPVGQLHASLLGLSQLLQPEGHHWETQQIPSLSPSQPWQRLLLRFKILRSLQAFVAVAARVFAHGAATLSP


How the values were obtained:
human IL-23 [1] = target: T1, human IL-23; experiment: SPR (Biacore T100), immobilized human IL-23, single cycle kinetics
human IL-23 [2] = target: T1, human IL-23; experiment: ratio of competition ELISA IC50, parent/mutant
human IL-23 [3] = target: T1, human IL-23; experiment: competition ELISA: Adnectin + 1 nM IL-23 on coated IL-23R-Fc

Kd (human IL-23 [1]) [nM] | Activity (parent/mutant) (human IL-23 [2]) [ratio] | IC50 (human IL-23 [3]) [nM] | Binder
2 | 1 | 1 | Adnectin 2 (designed binder, also called anti-IL-23 Adnectin; ATI-000929) MGVSDVPRDLEVVAATPTSLLISWEHDYPYRRYYRITYGETGGNSPVQEFTVPKDVDTATISGLKPGVDYTITVYAVTSSYKYDMQYSPISINYRTEIDKPSQHHHHHH
 | 0.4 | 2.2 | Adnectin 2 V75→Y (designed binder) MGVSDVPRDLEVVAATPTSLLISWEHDYPYRRYYRITYGETGGNSPVQEFTVPKDVDTATISGLKPGVDYTITVYAYTSSYKYDMQYSPISINYRTEIDKPSQHHHHHH
 | 3.8 | 0.26 | Adnectin 2 Y73→Q (designed binder) MGVSDVPRDLEVVAATPTSLLISWEHDYPYRRYYRITYGETGGNSPVQEFTVPKDVDTATISGLKPGVDYTITVQAVTSSYKYDMQYSPISINYRTEIDKPSQHHHHHH
 | 1.8 | 0.54 | Adnectin 2 V45→N (designed binder) MGVSDVPRDLEVVAATPTSLLISWEHDYPYRRYYRITYGETGGNSPNQEFTVPKDVDTATISGLKPGVDYTITVYAVTSSYKYDMQYSPISINYRTEIDKPSQHHHHHH
 | 1.9 | 0.51 | Adnectin 2 V45→E (designed binder) MGVSDVPRDLEVVAATPTSLLISWEHDYPYRRYYRITYGETGGNSPEQEFTVPKDVDTATISGLKPGVDYTITVYAVTSSYKYDMQYSPISINYRTEIDKPSQHHHHHH
 | 1.2 | 0.83 | Adnectin 2 V45→D (designed binder) MGVSDVPRDLEVVAATPTSLLISWEHDYPYRRYYRITYGETGGNSPDQEFTVPKDVDTATISGLKPGVDYTITVYAVTSSYKYDMQYSPISINYRTEIDKPSQHHHHHH
 | 0.6 | 1.7 | Adnectin 2 T35→N (designed binder) MGVSDVPRDLEVVAATPTSLLISWEHDYPYRRYYRINYGETGGNSPVQEFTVPKDVDTATISGLKPGVDYTITVYAVTSSYKYDMQYSPISINYRTEIDKPSQHHHHHH
 | 1.7 | 0.6 | Adnectin 2 T35→E (designed binder) MGVSDVPRDLEVVAATPTSLLISWEHDYPYRRYYRIEYGETGGNSPVQEFTVPKDVDTATISGLKPGVDYTITVYAVTSSYKYDMQYSPISINYRTEIDKPSQHHHHHH
 | 0.4 | 2.3 | Adnectin 2 V75→Q (designed binder) MGVSDVPRDLEVVAATPTSLLISWEHDYPYRRYYRITYGETGGNSPVQEFTVPKDVDTATISGLKPGVDYTITVYAQTSSYKYDMQYSPISINYRTEIDKPSQHHHHHH
 | 1.5 | 0.65 | Adnectin 2 Y73→A (designed binder) MGVSDVPRDLEVVAATPTSLLISWEHDYPYRRYYRITYGETGGNSPVQEFTVPKDVDTATISGLKPGVDYTITVAAVTSSYKYDMQYSPISINYRTEIDKPSQHHHHHH
 | 0.08 | 13 | Adnectin 2 Y28→A (designed binder) MGVSDVPRDLEVVAATPTSLLISWEHDYPARRYYRITYGETGGNSPVQEFTVPKDVDTATISGLKPGVDYTITVYAVTSSYKYDMQYSPISINYRTEIDKPSQHHHHHH
 | 1 | 1 | Adnectin 2 T35→Q (designed binder) MGVSDVPRDLEVVAATPTSLLISWEHDYPYRRYYRIQYGETGGNSPVQEFTVPKDVDTATISGLKPGVDYTITVYAVTSSYKYDMQYSPISINYRTEIDKPSQHHHHHH
 | 0.2 | 5.7 | Adnectin 2 V75→K (designed binder) MGVSDVPRDLEVVAATPTSLLISWEHDYPYRRYYRITYGETGGNSPVQEFTVPKDVDTATISGLKPGVDYTITVYAKTSSYKYDMQYSPISINYRTEIDKPSQHHHHHH
 | 0.03 | 35 | Adnectin 2 Y81→A (designed binder) MGVSDVPRDLEVVAATPTSLLISWEHDYPYRRYYRITYGETGGNSPVQEFTVPKDVDTATISGLKPGVDYTITVYAVTSSYKADMQYSPISINYRTEIDKPSQHHHHHH
 | 0.1 | 8.3 | Adnectin 2 P87→A (designed binder) MGVSDVPRDLEVVAATPTSLLISWEHDYPYRRYYRITYGETGGNSPVQEFTVPKDVDTATISGLKPGVDYTITVYAVTSSYKYDMQYSAISINYRTEIDKPSQHHHHHH
 | 2.9 | 0.34 | Adnectin 2 V45→Q (designed binder) MGVSDVPRDLEVVAATPTSLLISWEHDYPYRRYYRITYGETGGNSPQQEFTVPKDVDTATISGLKPGVDYTITVYAVTSSYKYDMQYSPISINYRTEIDKPSQHHHHHH
 | 0.8 | 1.2 | Adnectin 2 Y73→R (designed binder) MGVSDVPRDLEVVAATPTSLLISWEHDYPYRRYYRITYGETGGNSPVQEFTVPKDVDTATISGLKPGVDYTITVRAVTSSYKYDMQYSPISINYRTEIDKPSQHHHHHH
 | 0.02 | 49 | Adnectin 2 T35→D (designed binder) MGVSDVPRDLEVVAATPTSLLISWEHDYPYRRYYRIDYGETGGNSPVQEFTVPKDVDTATISGLKPGVDYTITVYAVTSSYKYDMQYSPISINYRTEIDKPSQHHHHHH
 | 0.8 | 1.2 | Adnectin 2 Y73→N (designed binder) MGVSDVPRDLEVVAATPTSLLISWEHDYPYRRYYRITYGETGGNSPVQEFTVPKDVDTATISGLKPGVDYTITVNAVTSSYKYDMQYSPISINYRTEIDKPSQHHHHHH
